The test concerns the target SpyTag-MBP (Streptococcus pyogenes). Put plainly: covalent adduct formation by SDS-PAGE densitometry.

With “full-length SpyCatcher (as used in the reaction assay of Fig. 4b) (domain or fragment)”, the percent covalent complex formation after 1 min was determined as 40% and the percent covalent complex formation after 10 min was found to be 65%.

(Values after PMC3959856.)
